Laboratory results taken from paper PMC13426413 (Science Advances, 2026).

Biological target: human Hsp90α (residues 1–732) (human, UniProt P07900 1-732)
Assay: ITC

B1: Tom70:Orf9b_(Helix) complex (complex)
chain 1: MNSLDRAQAAKNKGNKYFKAGKYEQAIQCYTEAISLCPTEKNVDLSTFYQNRAAAFEQLQKWKEVAQDCTKAVELNPKYVKALFRRAKAHEKLDNKKECLEDVTAVCILEGFQNQQSMLLADKVLKLLGKEKAKEKYKNREPLMPSPQFIKSYFSSFTDDIISQPMLKGEKSDEDKDKEGEALEVKENSGYLKAKQYMEEENYDKIISECSKEIDAEGKYMAEALLLRATFYLLIGNANAAKPDLDKVISLKEANVKLRANALIKRGSMYMQQQQPLLSTQDFNMAADIDPQNADVYHHRGQLKILLDQVEEAVADFDECIRLRPESALAQAQKCFALYRQAYTGNNSSQIQAAMKGFEEVIKKFPRCAEGYALYAQALTDQQQFGKADEMYDKCIDLEPDNATTYVHKGLLQLQWKQDLDRGLELISKAIEIDNKCDFAYETMGTIEVQRGNMEKAIDMFNKAINLAKSEMEMAHLYSLCDAAHAQTEVAKKYGLKPPTL
chain 2: IILRLGSPLSLNMARKTLNSLEDKAFQLTPIAVQY
binding result: binds
